From the supplement of paper PMC10567573
± gives the standard deviation.

Assay: protein stability index of a GFP-peptide fusion (GPS, HEK-293T) (PSI 1-6); higher = more stable
[1] = treatment: DMSO, c terminus: a fixed tail appended
[2] = treatment: MLN4924 1 uM, 8 h, c terminus: a fixed tail appended
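Further: 24-mer peptide tiles fused after GFP, lentivirally expressed, FACS-sorted into six equal bins by GFP/DsRed ratio, decoded by Illumina sequencing, PSI is the read-weighted mean bin number.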

Sequence | protein stability index [1] | protein stability index [2] | protein stability index (treatment: DMSO, c terminus: native) | protein stability index (treatment: MLN4924 1 uM, 8 h, c terminus: native)
LSSAEENEPSQAETAVEGDPSGVS [C18orf25] | 5.47 ± 0.24 | 5.39 ± 0.47 | – | –
AVATASRLGPYVLLEPEEGGRAYQ [TRIB3] | 3.79 ± 0.37 | 3.71 ± 0.32 | – | –
TGIIDSLTISPKAARVGLLQYSTQ [MATN2] | 2.72 ± 1.3 | 2.43 ± 0.23 | – | –
PSTTERISTSGQAGTSSHGCWAWP [PXN] | 3.04 ± 0.21 | 3.17 ± 0.23 | – | –
DMRDPTYRPLKQELQGLDYCKPTR [SPSB1] | 3.76 ± 0.59 | 4.04 ± 0.55 | – | –
IEVNGENVEDASHEEVVEKVKKSG [PDZK1] | 5.63 ± 0.16 | 5.34 ± 0.38 | – | –
RIPTCHDKPGTTQIVQLTQQVDTN [DENND6A] | 4.6 ± 0.14 | 4.59 ± 0.14 | – | –
GKTPTVRAALICLTLVLVASVLLQ [CD207] | 3.17 ± 0.16 | 3.11 ± 0.76 | – | –
LEDVERELDGPKQIFFGRRKDMIA [ZNF396] | 3.98 ± 0.3 | 4 ± 0.15 | – | –
GGYGFGRGRASGFAGSMFGSVALG [KRT71] | 3.05 ± 0.6 | 2.96 ± 0.25 | – | –
TYLCERCQPRNLDKERAVLLQRRK [KMT2E] | 2.57 ± 0.48 | 3.32 ± 0.54 | – | –
NTPMEETVRAMTHVINQGMAMYWG [KCNAB2] | 2.92 ± 0.39 | 3.13 ± 0.96 | – | –
FVLYFLLACWTYGISVPSGLFVPS [CLCN6] | 3.49 ± 0.56 | 3.09 ± 0.14 | – | –
SSQPQDNSQVHRETEDVDYGETDF [TMEM40] | 5.58 ± 0.26 | 5.64 ± 0.3 | – | –
LTVQFVQGIFVEKYDPTIEDSYRK [RAP1B] | 2.17 ± 0.47 | 2.1 ± 0.57 | – | –
EAAMAIASLNGYRLGERVLQVSFK [ELAVL3] | 2.24 ± 0.11 | 2.27 ± 0.17 | – | –
EPPPALPPAADAPVTQIGFEAPPL [TRIM55] | 5.24 ± 0.22 | 5.39 ± 0.11 | – | –
AEIQEACCEFLKRQLDPSNCLGIR [KLHL20] | 2.52 ± 0.24 | 2.67 ± 0.34 | – | –

Sequence | protein stability index [1] | protein stability index [2] | protein stability index (treatment: DMSO, c terminus: native) | protein stability index (treatment: MLN4924 1 uM, 8 h, c terminus: native)
IGKLLYLEDFFVMSDYRGFGIGSE [SAT1] | 2.85 ± 0.33 | 2.9 ± 0.81 | – | –
LNMEEPPVEEPEPKPDRLLVLKVL [SLC19A2] | 3.5 ± 0.56 | 3.8 ± 0.25 | – | –
MGQKLSGSLKSVEVREPALRPAKR [SPSB4] | 4.37 ± 0.31 | 4.62 ± 0.11 | – | –
EEELNFEKGETMEVIEKPENDPEW [NCK2] | 5.53 ± 0.32 | 5.55 ± 0.5 | – | –
AALIYFAISITAIAKYSDGASKAA [CMTM3] | 3.49 ± 0.37 | 3.43 ± 0.62 | – | –
WDLRFRIIHETAVGMNFLHCMAPP [RIPK4] | 2.89 ± 0.73 | 2.82 ± 0.83 | – | –
KVLNMWCCCFFKRRKRKTIQRHK [CSNK1G3] | – | – | 2.56 ± 0.16 | 2.86 ± 0.22
VIKGVLFRIFIIWAISSWFRRGPA [CLPTM1] | 2.75 ± 0.58 | 2.87 ± 0.68 | – | –
SQVSYFTYIPENNARGASIFSVTA [PCDHGA10] | 2.29 ± 0.56 | 2.39 ± 0.54 | – | –
HSDHSSEMSLPEVQKDKYPEEFSL [SPATS1] | 5.3 ± 0.29 | 5.26 ± 0.29 | – | –
RNVRFSDEGGFTCFFRDHSYQEEA [MOG] | 3.54 ± 0.35 | 3.75 ± 0.59 | – | –
PEENYPSLQMSSAEMPHTETVSPL [NANOGP8] | 5.25 ± 0.12 | 5.28 ± 0.18 | – | –
DGLPLHFFIQTVRPKDTVMCYRVR [MYORG] | 2.15 ± 0.43 | 2.24 ± 0.31 | – | –
VTYSLLKRLKERSLDTLLEAVESR [SMAD6] | 2.26 ± 0.17 | 2.33 ± 0.29 | – | –
AANHWVLPAAEFHGLWDSLVYDVE [TRIP13] | 2.62 ± 0.31 | 2.66 ± 0.22 | – | –
SAQNGLASSLPAEVHSLTLSPPEQ [PLAGL1] | 5 ± 0.15 | 5.03 ± 0.22 | – | –
YRTWNVVVHDWLYSYVYQDGLRLL [SOAT2] | 3.02 ± 0.41 | 2.82 ± 0.84 | – | –
GTVIGVTSCIVIILIIISVIVQIK [NETO1] | 3.16 ± 0.34 | 3.02 ± 0.36 | – | –
